Results taken from US20100210509A1, “LONG ACTING HYALURONIC ACID - PEPTIDE CONJUGATE” (Postech Academy-Industry Foundation, priority 2007, published 2010).
Where no end group is shown, it is not given here. [ ]: non-standard residue; d: D form.

Experiments:
FPRL1 receptor [1] = molecular target: T1, FPRL1 receptor (Homo sapiens, UniProt P25090); assay: pERK level by Western blot in FPRL1 over-expressing RBL-2H3 cells after stimulation; format: cell-based
T1 construct: expressed in transfected cells; host or cells: RBL-2H3 (rat basophilic leukemia) cells over-expressing FPRL1, kept under G418 selection
T1 sequence (P25090 1-351): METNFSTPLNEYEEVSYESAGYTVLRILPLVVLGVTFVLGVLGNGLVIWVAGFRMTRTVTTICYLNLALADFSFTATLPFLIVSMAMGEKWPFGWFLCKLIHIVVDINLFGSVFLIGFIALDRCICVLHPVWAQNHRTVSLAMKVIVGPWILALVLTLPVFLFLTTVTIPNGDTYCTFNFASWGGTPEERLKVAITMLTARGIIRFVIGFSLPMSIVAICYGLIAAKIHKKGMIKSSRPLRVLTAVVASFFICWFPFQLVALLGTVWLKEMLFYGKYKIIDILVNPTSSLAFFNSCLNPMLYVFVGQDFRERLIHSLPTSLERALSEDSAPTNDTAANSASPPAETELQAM
Protocol: In order to investigate the effect of HA conjugation on the signal transduction activity of peptide, three kinds of samples were prepared, the raw peptide, conjugate of peptide with HA-AMEA, and conjugate of peptide with HA-AEMA after hyaluronidase treatment. In the conjugate samples, the number of peptide molecules per single HA derivative chain was 5, 8, and 23, respectively. Each sample of conjugate of peptide with HA-AEMA (0.4 mL, 1 mg/mL) was divided into two aliquots. One aliquot was mixed with 0.2 mL of hyaluronidase solution (400 units/mL) and the other was mixed with 0.2 mL of water. Then, the solutions were incubated at 37° C. overnight for the complete enzymatic degradation of HA. Three replicates were carried out for the following bioactivity tests measuring the intracellular level of pERK and calcium ion. […]
The prepared cells were aliquoted into 1×10^6 cells and stimulated with a control (no treatment), peptide (CWRYMVm, SEQ ID NO: 5), HA-AEMA, the mixture of peptide and HA-AEMA, and three kind of conjugate samples with and without hyaluronidase treatment. […] Protein concentrations in the lysates were determined by Bradford protein assay. […]
The data are expressed as means±S.D. from several separate experiments. […]

[2] = Dissolution of peptide in serum; format: physicochemical; settings: fetal bovine serum
Protocol: In order to investigate the effect of HA conjugation on the serum stability of peptide, raw peptide and three kinds of conjugate samples were dissolved in 0.5 mL of water and mixed with 0.5 mL of fetal bovine serum (FBS), respectively. In conjugates of peptide with HA derivative, the number of peptide molecules per single HA chain was 5, 19, and 33, respectively. […] Then, the solutions were incubated at 37° C. for 96 hours. The remaining amount of peptide was measured by GPC analysis after incubation for 12, 24, 48, 72, and 96 hours. Three replicates were carried out.

FPRL1 receptor [3] = molecular target: T1, FPRL1 receptor; assay: Co-treatment with antagonistic peptide, pERK Western blot in RBL-2H3/FPRL1 cells; format: cell-based; settings: RBL-2H3/FPRL1 cells stimulated 5 min with CWRYMVm or HA-CWRYMVm conjugates (5, 8, 23)
Protocol: In order to investigate the effect of co-treatment with antagonistic peptide (C—WRWWWW (SEQ ID NO: 6), WRW4 (SEQ ID NO: 2) on the binding characteristics of the conjugates of peptide with HA-AEMA to FPRL1 receptor, the RBL-2H3/FPRL1 cells were stimulated with a control (no treatment), peptide (CWRYMVm, SEQ ID NO: 5), and three kinds of conjugate samples for 5 minutes in the presence and absence of C-WRWWWW (SEQ ID NO: 6), ([…], competitor for FPRL1 binding). The other procedures including electrophoresis and immunoblot analysis for Western blot was repeated in the same way as described above.

pERK level normalized to peptide alone (100%) (FPRL1 receptor [1]; RBL-2H3/FPRL1 cells, 5 min stimulation, same peptide amount, without hyaluronidase treatment) | stimulation time of highest elevation of intracellular pERK level (FPRL1 receptor [1]; stimulation up to 30 min, Western blot) | intracellular level of pERK on co-treatment with antagonistic peptide (FPRL1 receptor [3]) | Substance | dissolution in serum [2]
100% | 5 min |  | Cys-Trp-Arg-Tyr-Met-Val-DMet (CWRYMV[dM]; also: conjugated with hyaluronic acid derivative) [CWRYMVm, Agonistic peptide for FPRL1 receptor; WRYMVm modified with cysteine] | not dissolved in serum completely
 |  | did not increase at all | Trp-Arg-Trp-Trp-Trp-Trp (WRWWWW; also: conjugated with hyaluronic acid derivative) [FPRL1 antagonist peptide] | 
